According to patent US20120328625A1 (AstraZeneca / MedImmune, published 2012):
Substitutions are numbered along the chain they refer to.

B1: 3H8 (antibody, V domains shown)
VH: QVQLVESGGGVVQPGRSLRLSCAASGFTFSTYGMHWVRQAPGKGLEWVAVIWYDGSNKYYADSVKGRFTISRDNSKNTLNLQMNSLRAEDTAVYYCARDLYYYGSGSPFDYWGQGTLVTVSS
VL: EIVMTQSPATLSVSPGERATLSCRASQSVSSNLAWYQQKPGQAPRLLIFGVSIRATGIPARFSGSGSGTEFTLTISSLQSEDFAVYYCQQYNNWPRPGFGGGTKVEIK
notes: fully human XenoMouse hybridoma antibody; also called MAb 3H8
B2: 6D7 (antibody, V domains shown)
VH: QVQLQESGPGLVKPSQTLSLTCTVSGGSINSGGFYWSWIRQHPGKNLEWIGSIYYSGNTYYNPSLKSRVTISVDTSKNQFSLKLTSVTAADTAVYYCARGNDSGDYDWYFDLWGRGTLVTVSS
VL: SYELTQPPSVSVSPGQTASITCSGEKLGYKYVCWYQQKPGQSPVLVIFHDNKRPSGIPERFSGSNSGNTATLTISGAQAMDEADYYCQAGDSSAVFGGGTKLTVL
notes: fully human XenoMouse hybridoma antibody; also called MAb 6D7
B3: 6D7OP (antibody, IgG1, V domains shown)
VH: B2 VH with N46G, T85S, N101Q
VL: B2 VL with C33S, F48Y, A77T
B4: 1G1 (antibody, V domains shown)
VH: EVQLVESGGGLVKPGGSLRLSCAASGFTFSSYSMNWVRQAPGKGLEWVSSFSSSSSYIYYADSVKGRFTISRDNAKNSLYLQMNSLRAEDTAVYYCARDRGDYVDYYYGMDVWGQGTTVTVSS
VL: SYELTQPPSVSVSPGQTASITCSGDKLDYKYICWYQQKPGQSPVLVIYQDIKRPSGIPERFSGSNSGNTATLTISGTQAMDEADYYCQAWDSNTPLVFGGGTKLTVL
notes: fully human XenoMouse hybridoma antibody; also called MAb 1G1
B5: 1G1 recombinant IgG2 (antibody, V domains shown)
VH: B4 VH
VL: B4 VL
B6: 1H8 recombinant IgG2 (antibody, V domains shown)
VH: QVQLQESGPGLVKPSETLSLTCTVSGGSISSYYWTWIRQPPGKGLEWIGYIYYSGSTNYNPSLKSRVTISVDTSKNQFSLKLSSVTAADTAVYYCARDRLLYGMDVWGQGTTVTVSS
VL: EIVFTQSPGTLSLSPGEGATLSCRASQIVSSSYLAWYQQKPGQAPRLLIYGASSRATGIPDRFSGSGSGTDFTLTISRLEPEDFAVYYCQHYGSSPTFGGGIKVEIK
notes: also called 1H8 hIgG2
B7: 3H8 recombinant IgG2 (antibody, V domains shown)
VH: B1 VH
VL: B1 VL
B8: 6D7 recombinant IgG2 (antibody, V domains shown)
VH: B2 VH
VL: B2 VL

Key:
biotinylated human Shh = biological target: T1, biotinylated human Shh (human, UniProt Q15465 24-197, limits assumed, biotinylated); assay: ELISA, hybridoma supernatant on neutravidin-captured biotin-Shh
T1 construct: also called biotin-Shh; immobilized biotinylated Shh
Procedure: After blocking with 1% milk in PBS, 40 μl of 500 ng/ml biotinylated Shh in 1×PBS, 1% milk (wt/vol) was added to each well and incubated for 1 hr at RT. Hybridoma supernatants (10 μl/well) were added to 40 μl of 1% milk, 0.05% Tween-20 in PBS per well and incubated 1 hr at RT. Following washing and incubation with secondary antibody (100 ng/ml goat-anti-human IgG Fc HRP), wells were developed with TMB substrate and subsequently quenched with 1 N HCl.

[1] = biological target: T2, full length human Shh expressed on the cell surface (human, UniProt Q15465 24-462); assay: cell-based or functional assay
[2] = biological target: T3, Shh-N in conditioned medium (human, UniProt Q15465 24-197, N-terminal palmitoyl modification; lacks the C-terminal cholesterol moiety); assay: cell-based or functional assay
[3] = biological target: T3, Shh-N in conditioned medium; assay: cell-based or functional assay; remark: listed apart in the source
[4] = biological target: T2, full length human Shh expressed on the …; assay: flow cytometry, hybridoma-derived hIgG4 on HEK 293 cells stably expressing full length Shh; 95% CI ±141 pM
Procedure: (§1) The binding affinity of the purified antibodies for full length Shh ectopically expressed on the surface of a pool of stable HEK 293 cells was determined using flow cytometry. […] Antibody was mixed with cells at approximately 74,000 cells/well in a final volume of 300 μl in a polypropylene microtiter plate. The plate was incubated with shaking for 5 hours at 4° C. […] The plates were shaken for 20 minutes at 4° C. The mean fluorescence of 10,000 events was recorded for each sample using FACS Canto II HTS flow cytometry instrumentation. A plot of the mean fluorescence as a function of antibody concentration was fit nonlinearly with Scientist 3.0 software to estimate KD.

[5] = biological target: T2, full length human Shh expressed on the …; assay: FMAT, hybridoma supernatant on 293T cells transiently expressing human Shh
Procedure: Cells were maintained at 1×10⁶ cells/ml overnight at 37° C., 5% CO₂. […] Supernatants were added to each well (10 μl/well) and incubated 1.5 hrs at RT. […] Plates were read on the FMAT 8100 HTS system from Applied Biosystems. Total signal (FL1×count) is defined as the number of positive cells in a well (count) multiplied by the average fluorescence intensity of the positive cells (FL1).

[6] = biological target: T2, full length human Shh expressed on the …; assay: flow cytometry, exhaust hybridoma supernatant 1:10, 293T cells transiently expressing human Shh
Procedure: Finally, binding of antibody in exhaust hybridoma supernatants to native Shh was assessed using flow cytometry. […] Transfected or parental cells were seeded into the plates with V-bottom wells (50,000 cells/well). Exhaust supernatants (50 μl of a 1:10 dilution) were added to each well and incubated at 4° C. for 1 hr. […] It was added to a concentration of 2 μg/ml in a volume of 50 μl. Cells were washed and 50 μl of a 2 μg/ml solution of secondary antibody (Cy5-labeled goat-anti-human IgG or Cy5-labeled goat-anti-rabbit IgG) were added to each well. 7AAD was added to a concentration of 5 μg/ml and the mixture was incubated for 30 min at RT. The mean fluorescence for each sample was then determined using flow cytometry.

[7] = biological target: T3, Shh-N in conditioned medium; assay: ELISA, apparent KD, purified antibody on immobilized Shh-CM
Procedure: (§2) The binding of purified antibodies to recombinant human Shh was determined using an ELISA-based method. The N-terminal signaling domain of Shh, Shh-N, was presented in two forms: as a purified protein isolated from bacteria lacking lipid modifications and as a constituent of conditioned medium in a form that contains the N-terminal palmitoyl modification but lacks the C-terminal cholesterol moiety.
(§3) The plates were sealed and placed on a shaker overnight at 5° C. The next day, the plates were washed 4 times with PBS with 0.05% Tween 20 (PBS-T). […] The plates were washed four times with PBS-T. Titrations of purified antibody (half log serial dilutions over at least six logs with a starting concentration of 30 μg/mL) were made in 100 μl PBS-T and added into wells and incubated with shaking overnight at 4° C. Antibody controls included human IgG2 and IgG4 (Sigma-Aldrich, Cat, #I5404 and #I4639, respectively). […] Following washing with PBS-T, the chemiluminescent Peroxidase substrate (Sigma cat# CPS-2-60) was added at room temperature and incubated for ten minutes with the plate covered by foil. Each well was read for 100 msec in the Spectromax 5e to determine RLU.

[8] = biological target: T4, Recombinant Human Desert Hedgehog C23II, amino terminal peptide (R&D Systems cat#4777-HH) (human, UniProt O43323 23-198); assay: ELISA, immobilized human Dhh, antibody 30 µg/ml to 1 pg/ml
T4 construct: domain: amino terminal peptide; bought; also called Human Dhh
Procedure: The plates were washed four times with PBS-T. Titrations of purified antibody (half log serial dilutions over at least six logs with a starting concentration of 30 μg/mL) were made in 100 μl PBS-T and added into wells and incubated with shaking overnight at 4° C. Antibody controls included human IgG2 and IgG4 (Sigma-Aldrich, Cat, #I5404 and #I4639, respectively). […] Following washing with PBS-T, the chemiluminescent Peroxidase substrate (Sigma cat# CPS-2-60) was added at room temperature and incubated for ten minutes with the plate covered by foil. Each well was read for 100 msec in the Spectromax 5e to determine RLU.
After washing with PBS-T and blocking with 1% BSA, antibody titrations spanning concentrations of 30 μg/ml to 1 pg/ml prepared by half log serial dilution in PBS-T were added to wells and incubated with shaking overnight at 4° C.

[9] = biological target: T5, Recombinant Human Sonic Hedgehog C24II amino terminal peptide (R&D Systems cat#1845-SH) (human, UniProt Q15465 24-197); assay: ELISA, apparent KD, purified antibody on immobilized Shh C24II
T5 construct: domain: amino terminal peptide; bought; also called Shh-C24II; C24II peptide
Procedure: as §2, §3

[10] = biological target: T2, full length human Shh expressed on the …; assay: cell-based or functional assay; remark: listed apart in the source
[11] = biological target: T3, Shh-N in conditioned medium; assay: cell-based or functional assay; remark: listed apart in the source
[12] = biological target: T2, full length human Shh expressed on the …; assay: flow cytometry, hybridoma-derived hIgG4 on HEK 293 cells stably expressing full length Shh; 95% CI ±40 pM
Procedure: as §1

[13] = biological target: T6, Recombinant Human/Mouse Indian Hedgehog C28II, amino terminal peptide (R&D Systems cat#1705-HH/CF) (human/mouse (100% sequence identity in …, UniProt Q14623 28-202)); assay: ELISA, apparent KD, purified antibody on immobilized human/mouse Ihh
T6 construct: domain: amino terminal peptide; bought; also called Human/mouse Ihh; Ihh-N C28II
Procedure: as §3

[14] = biological target: T3, Shh-N in conditioned medium; assay: cell-based or functional assay; remark: listed apart in the source
[15] = biological target: T6, Recombinant Human/Mouse Indian Hedgehog …; assay: SPR (Biacore), IgG1 captured on protein G', human/mouse Ihh as analyte, 1:1 Langmuir
Source text: (§4) Protein G was coupled to the CM5 chip surface using standard amine linkage chemistry. Protein G′ was cleared of Tris using a Dulbecco's PBS equilibrated PD-10 column. […] Approximately 500 RUs of protein G were covalently bound to the surface of flow chamber 2 (Fc2). […] Immobilization levels were reproducible between cycles.

[16] = biological target: T6, Recombinant Human/Mouse Indian Hedgehog …; assay: cell-based or functional assay
[17] = biological target: T5, Recombinant Human Sonic Hedgehog C24II …; assay: SPR (Biacore), IgG1 captured on protein G', human Shh as analyte, 1:1 Langmuir
Source text: as §4

[18] = biological target: T5, Recombinant Human Sonic Hedgehog C24II …; assay: SPR (Biacore T100), recombinant IgG2 mAb amine-coupled to CM5, Shh as analyte, 1:1 model
Procedure: (§5) The binding affinity of four purified recombinant antibodies expressed in a human IgG2 constant domain background was measured by high resolution Biacore. All experiments were performed using a Biacore T100 instrument at 23° C. […] All mAbs were covalently coupled to a CM5 biosensor chip using routine amine coupling chemistry. […] For experiments with Shh-containing conditioned media (CM), a 1.5 mL aliquot was centrifuged for 10 minutes at 13,200 rpm. […] Shh samples were randomly injected in triplicate with several buffer inject cycles interspersed for double referencing. All sensorgram data were processed using Scrubber and fit to a 1:1 interaction model (including a term kₘ for mass transport) using CLAMP.

[19] = biological target: T3, Shh-N in conditioned medium; assay: as above
Procedure: as §5

[20] = biological target: T2, full length human Shh expressed on the …; assay: flow cytometry, recombinant hIgG2 on CAOV3 cells stably over-expressing full length Shh; 95% CI ±32.4 pM
[21] = biological target: T2, full length human Shh expressed on the …; assay: flow cytometry, recombinant hIgG2 on CAOV3 cells stably over-expressing full length Shh; 95% CI ±460 pM
[22] = biological target: T2, full length human Shh expressed on the …; assay: flow cytometry, recombinant hIgG2 on CAOV3 cells stably over-expressing full length Shh; 95% CI ±30.4 pM
[23] = biological target: T5, Recombinant Human Sonic Hedgehog C24II …; assay: SPR (Biacore T100), recombinant IgG2 mAb amine-coupled to CM5, Shh as analyte, 1:1 model; KD only an estimate
Procedure: as §5

[24] = biological target: T3, Shh-N in conditioned medium; assay: as above
Procedure: as §5

[25] = biological target: T2, full length human Shh expressed on the …; assay: flow cytometry, recombinant hIgG2 on CAOV3 cells stably over-expressing full length Shh; 95% CI ±19.4 pM

Binder | % Inh of Gli1 reporter, Co-Culture N = 1 [1] | % Inh of Gli1 reporter, Co-Culture N = 2 [1] | % Inh of Gli1 reporter, CM N = 1 [2] | % Inh of Gli1 reporter, CM N = 3 [2] | IC50, inhibition of osteoblast differentiation (alkaline phosphatase) of C3H10T1/2 cells [3] | FL1 X COUNT [5] | X Geo Mean (Transients) [6] | Kd [7] | Kd [9] | % Inhibition of Gli1 reporter, Co-Culture N = 1, 20 µg/ml [10] | % Inhibition of Gli1 reporter, Co-Culture N = 2, 20 µg/ml [10] | % Inhibition of Gli1 reporter, Conditioned Media N = 1, 20 µg/ml [11] | % Inhibition of Gli1 reporter, Conditioned Media N = 2, 20 µg/ml [11] | Kd [18] | Kd [19] | also measured
B1 | 35% | 32% | 21% | -24% | 3.4 nM | 497000 | 148 | 0.331 nM | 0.069 nM | 73% | 87% | 37% | 44% |  |  | OD450 (biotinylated human Shh): 3.81 OD450; Kd [4]: 0.25 nM; binding result [8]: no binding
B2 | 46% | 22% | -8% | -1% | 5.3 nM | 661000 | 313 | 0.06 nM | 0.047 nM | 80% | 68% | 89% | 111% |  |  | Kd [12]: 0.107 nM; Kd [13]: 0.052 nM; binding result [8]: no binding; IC50, inhibition of endogenous mouse Gli1 mRNA (qRT-PCR) in C3H10T1/2 cells [14]: 11.7 nM; IC50, inhibition of endogenous mouse Ptc1 mRNA (qRT-PCR) in C3H10T1/2 cells [14]: 8.2 nM
B3 |  |  |  |  |  |  |  |  |  |  |  |  |  |  |  | Kd [15]: 0.0342 nM; IC50, inhibition of osteoblast differentiation of C3H10T1/2 cells induced by Ihh-N C28II (2 µg/ml) [16]: 16.3 nM; Kd [17]: 0.003 nM
B4 | 42% | 39% | 33% | 47% | 5.7 nM | 585000 | 188 | 0.03 nM | 0.061 nM | 44% | 55% | 50% | 61% |  |  | OD450 (biotinylated human Shh): 4.3 OD450; % Inhibition of Gli1 reporter, Co-Culture N = 3, 20 µg/ml [10]: 19%; IC50, inhibition of endogenous mouse Gli1 mRNA (qRT-PCR) in C3H10T1/2 cells [14]: 7.7 nM; IC50, inhibition of endogenous mouse Ptc1 mRNA (qRT-PCR) in C3H10T1/2 cells [14]: 8.7 nM
B5 |  |  |  |  |  |  |  |  |  |  |  |  |  | 0.377 nM | 0.317 nM | Kd [20]: 0.0465 nM
B6 |  |  |  |  |  |  |  |  |  |  |  |  |  | 4.3 nM | 4.31 nM | koff [18]: 0.00209 s⁻¹; kon [18]: 486000 M⁻¹ s⁻¹; koff [19]: 0.00289 s⁻¹; kon [19]: 671000 M⁻¹ s⁻¹; Kd [21]: 1.52 nM
B7 |  |  |  |  |  |  |  |  |  |  |  |  |  | 0.0267 nM | 0.0056 nM | Kd [22]: 0.0682 nM
B8 |  |  |  |  |  |  |  |  |  |  |  |  |  |  |  | Kd [23]: 0.0135 nM; Kd [24]: 0.0034 nM; Kd [25]: 0.0371 nM
